In PMC5123862:
One block for each substance: values may come before it.

How the values were obtained:
[1] = biological target: Wild-type PCNA (human) (human) (UniProt P12004)
[2] = tested on: DNA polymerase eta (pol η) (human); experiment: fluorescence anisotropy; conditions: 10 mM Mg2+; 25 mM TrisOAc pH 7.7, 10 mM Mg(OAc)2, 125 mM KOAc, 0.1 mg/ml BSA, 1 mM DTT, ionic strength adjusted to 200 mM with KOAc, room temperature
[3] = tested on: DNA polymerase delta (pol δ), exonuclease-deficient (human); experiment: fluorescence anisotropy; conditions: 10 mM Mg2+; estimated from partial binding curve, single measurements; 25 mM TrisOAc pH 7.7, 10 mM Mg(OAc)2, 125 mM KOAc, 0.1 mg/ml BSA, 1 mM DTT, ionic strength adjusted to 200 mM with KOAc, room temperature
[4] = tested on: DNA polymerase delta (pol δ), exonuclease-deficient;Cy5-PCNA (human;human); experiment: FRET; conditions: 3'-biotin (Neutravidin bound); 25 mM TrisOAc pH 7.7, 10 mM Mg(OAc)2, 125 mM KOAc, 0.1 mg/ml BSA, 1 mM DTT, ionic strength adjusted to 200 mM with KOAc, room temperature; cited from earlier work
[5] = tested on: DNA polymerase eta (pol η);Cy5-PCNA (human;human); experiment: FRET; conditions: pol η titrated onto Cy5-PCNA loaded by RFC (100 nM each), 1 mM ATP; 3'-biotin (Neutravidin bound); 25 mM TrisOAc pH 7.7, 10 mM Mg(OAc)2, 125 mM KOAc, 0.1 mg/ml BSA, 1 mM DTT, ionic strength adjusted to 200 mM with KOAc, room temperature
[6] = biological target: Cy3-pol η (human DNA polymerase eta, full length, N-terminally labeled with Cy3) (human) (UniProt Q9Y253); experiment: FRET or BRET; competitive inhibition: pre-assembled Cy3-Pol η•Cy5-PCNA complex (200 nM Cy3-Pol η, 20 nM Cy5-PCNA) titrated with unlabeled competitor (PCNA, (Ub)3-PCNA or pol η, 0-5 μM); dose-response model, Ki from IC50 by the Munson-Rodbard solution; room temperature; replication assay buffer, ionic strength 200 mM
Sequence of Cy3-pol η (human DNA polymerase eta, full length, N-terminally labeled with Cy3) (human) (Q9Y253 whole entry): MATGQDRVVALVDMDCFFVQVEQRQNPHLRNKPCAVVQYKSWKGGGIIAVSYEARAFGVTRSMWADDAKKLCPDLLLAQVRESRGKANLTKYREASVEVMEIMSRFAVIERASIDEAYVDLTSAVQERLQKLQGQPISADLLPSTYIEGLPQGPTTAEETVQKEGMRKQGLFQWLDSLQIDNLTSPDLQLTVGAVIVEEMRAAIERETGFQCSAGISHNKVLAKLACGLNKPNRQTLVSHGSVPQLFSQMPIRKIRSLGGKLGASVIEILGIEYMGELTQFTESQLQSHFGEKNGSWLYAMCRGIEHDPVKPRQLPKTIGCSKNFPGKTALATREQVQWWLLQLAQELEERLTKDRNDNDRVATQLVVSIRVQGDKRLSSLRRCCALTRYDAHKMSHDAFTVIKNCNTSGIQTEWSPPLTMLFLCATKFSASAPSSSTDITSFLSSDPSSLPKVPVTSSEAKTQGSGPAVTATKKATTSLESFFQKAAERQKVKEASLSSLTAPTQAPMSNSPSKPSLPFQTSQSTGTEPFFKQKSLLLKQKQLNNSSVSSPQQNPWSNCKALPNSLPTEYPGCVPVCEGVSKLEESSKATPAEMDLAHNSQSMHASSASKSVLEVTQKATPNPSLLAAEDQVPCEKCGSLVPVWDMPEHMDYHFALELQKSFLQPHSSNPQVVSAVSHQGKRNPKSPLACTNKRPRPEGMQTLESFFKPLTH

Sequence of Wild-type PCNA (human) (human) (P12004 whole entry): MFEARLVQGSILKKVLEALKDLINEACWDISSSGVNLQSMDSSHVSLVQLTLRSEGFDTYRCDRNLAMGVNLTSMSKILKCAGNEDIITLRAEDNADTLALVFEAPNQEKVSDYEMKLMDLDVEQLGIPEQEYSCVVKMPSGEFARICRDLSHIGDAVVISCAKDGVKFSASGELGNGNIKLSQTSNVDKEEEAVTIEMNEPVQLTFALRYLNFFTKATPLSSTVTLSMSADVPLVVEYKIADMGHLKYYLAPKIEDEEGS

- probability of insertion (Pi) of pol δ in single turnover primer extension on TT P/T DNA in the presence of PCNA (plateau i = 15 to i = 25); no DNA synthesis without PCNA [1]: 0.999
Substance: Exonuclease-deficient human DNA polymerase delta (D402A in the catalytic POLD1 subunit) (from UniProt P28340 1-1107) (complex)

Substance: FLUOR-P/T DNA
- Kd [2]: 0.0297 µM
- Kd [3]: 0.537 µM

Substance: Forked Cy3-P/T DNA
- Kd [4]: < 0.01 µM
- Kd [5]: 0.028 µM

- Ki [6]: 0.119 µM
Substance: Monoubiquitinated PCNA ((Ub)3-PCNA): a single ubiquitin moiety on K164 of each monomer within a homotrimeric clamp ring (from UniProt P12004 1-261; P0CG48 1-76) (complex)
